Results published in PMC5075775.

How the values were obtained:
[1] = tested on: monoclonal anti-dsDNA antibody HYB 331-01, clone 35I9; experiment: ELISA; settings: SPR: Biacore X100, SA chip, immobilisation in HBS-EP+ (0.1 M HEPES, 1.5 M NaCl, 30 mM EDTA, 0.5% P20), 37 C, ELISA: antigens coated in PBS, diluent PBS …
[2] = tested on: monoclonal anti-DNA antibody ED-10; experiment: SPR; settings: SPR: Biacore X100, SA chip, immobilisation in HBS-EP+ (0.1 M HEPES, 1.5 M NaCl, 30 mM EDTA, 0.5% P20), 37 C, ELISA: antigens coated in PBS, diluent PBS …

| Sequence | binding signal [1] [A450] | also measured |
| --- | --- | --- |
| AGGGAGGGGGAGAGGGAGAGG (double strand) [D11 (AG)] | 0.78 |  |
| ATTTATTTTT (double strand) [D16 (AT 10mer)] | 0.76 |  |
| ATTTATTTTTATATTTATATT (double strand) [D8 (AT, SEQ6)] | 1.27 |  |
| ATTTATTTTTATATTTATATTATTTATTTTTATATTTATATTATTTATTTTTATATTTATATT (double strand) [D18 (AT 63mer)] | 1.44 |  |
| CCACACCCACACCCCCACCCA (double strand) [D12 (CA)] | 0.78 |  |
| GGAGAGGGAGAGGGGGAGGGA (double strand) [D13 (GA)] | 0.89 |  |
| TAATATATTTATATTTATATT (double strand) [D2 (TA)] | 1.11 |  |
| TCCTCTCTTT (double strand) [D15 (TC 10mer)] | 0.9 |  |
| TCCTCTCTTTCTCTTTCTCTT (double strand) [D1 (SEQ5)] | 1.41 |  |
| TCCTCTCTTTCTCTTTCTCTT (double strand) [D19 (LNA pattern of SEQ1)] |  | binding signal ([1]; LNA at 4, 13, 19 of strand 1): 1.12 A450 |
| TCCTCTCTTTCTCTTTCTCTT (double strand) [D20] |  | binding signal ([1]; LNA at 1, 4 of strand 1): 0.89 A450 |
| TCCTCTCTTTCTCTTTCTCTT (double strand) [D21] |  | binding signal ([1]; LNA at 11, 13 of strand 1): 0.77 A450 |
| TCCTCTCTTTCTCTTTCTCTT (double strand) [D22] |  | binding signal ([1]; LNA at 4 of strand 1): 0.56 A450 |
| TCCTCTCTTTCTCTTTCTCTT (double strand) [SEQ4 biotinylated LNA/DNA duplex (SPR)] |  | Kd ([2]; ka 1.009e8, kd 7.860e-1, text also claims higher binding of SEQ4, LNA at 4, 10, 13, 19 of strand 1 by plus signs (Table 1 lists 4, 10, 14, 19)): 0.779 µM |
| TCCTCTCTTTCTCTTTCTCTT (double strand) [SEQ5 biotinylated duplex (SPR)] |  | Kd ([2]; ka 3.341e3, kd 3.531e-4): 0.106 µM |
| TCCTCTCTTTCTCTTTCTCTTTCCTCTCTTTCTCTTTCTCTTTCCTCTCTTTCTCTTTCTCTT (double strand) [D17 (TC 63mer)] | 1.5 |  |
| TGAACTCTATGTCTGTATCAT (double strand) [D14 (ATCG mixmer, SEQ7)] | 1.55 |  |
| TGGTGTGTTTGTGTTTGTGTT (double strand) [D3 (TG)] | 1.13 |  |
| TTATATTTATATTTATATAAT (double strand) [D6 (AT)] | 1 |  |
| TTCTCTTTCTCTTTCTCTCCT (double strand) [D5 (CT)] | 0.98 |  |
| TTGTGTTTGTGTTTGTGTGGT (double strand) [D7 (GT)] | 1.87 |  |
